# Experimental data taken from publication PMC10020352.
# Biological target: Mu-opioid receptor, P35372
# Sequence (P35372 whole entry): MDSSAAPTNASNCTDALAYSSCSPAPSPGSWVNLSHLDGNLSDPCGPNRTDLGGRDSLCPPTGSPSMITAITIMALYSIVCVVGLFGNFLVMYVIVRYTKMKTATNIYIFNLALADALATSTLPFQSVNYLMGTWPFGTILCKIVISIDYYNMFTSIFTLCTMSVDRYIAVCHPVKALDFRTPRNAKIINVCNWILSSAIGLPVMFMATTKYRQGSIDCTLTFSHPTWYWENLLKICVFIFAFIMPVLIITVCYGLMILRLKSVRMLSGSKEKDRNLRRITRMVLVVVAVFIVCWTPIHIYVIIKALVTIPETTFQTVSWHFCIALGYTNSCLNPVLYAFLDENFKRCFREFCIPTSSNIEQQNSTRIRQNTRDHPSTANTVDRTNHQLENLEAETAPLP
binder,measurement,value
YGGFLRR (modifications not checked) [Dyn1-7],"Activity (EC50, nM) for cAMP in MOP receptor over-expressing HEK293 cells",3740 nM
